The source of these data is US12622945B2, “Hard tissue therapeutics” (OrthoTrophix, Inc., priority 2020, dated 2026).

The subject of one data set is human and rat bone cells. The conditions noted are these: human and rat/murine orthologues; cited from earlier work.
A further data set deals with T1, integrin αvβ3 (Homo sapiens, UniProt P05106+P06756).
T1 construct: purchased R&D Systems
Put plainly: Competition ELISA with biotinylated RGD-Knottin, integrin αvβ3. The data set is classed as binding. As to the method: All integrins used in this study contained the human sequence.
The binding assay was conducted as a competition ELISA using biotinylated Knottin and unlabeled peptides.
Methods were carried out as follows, as described by Bernhagen 2017.
Incubation and washing buffers were prepared using standard protocols. Recombinant human integrins were purchased from R&D Systems (Minneapolis, U.S.A.). Strep-HRP (Streptavidin-Horseradish Peroxidase conjugate, Southern-Biotech, Birmingham, U.S.A.), and rabbit anti-mouse-HRP (Southern-Biotech, Birmingham, U.S.A.) were diluted 1:200-1:1000 for ELISA experiments.
All integrins were dissolved according to manufacturer's protocol and stored in 25 μL aliquots of 100 μg/mL in PBS. For coating of one 96 well plate, 2 aliquots were thawed and dissolved in 9.95 mL of cold coating buffer for a 0.5 μg/mL solution.
After coating, the plates were subsequently sealed and stored at 4° C. overnight. […]
The following washing and incubation steps were performed according to manuscript. […] Peptides, whose integrin binding strength were to be determined, were mixed in 12 different concentrations (each 3-fold dilutions) with a fixed concentration of RGD-Knottin (both in PBS, 15 min, room temperature), followed by incubation of the plates with peptide/RGD-Knottin solutions.
Substrate buffer incubation and absorbance measurements were identical to that for binding ELISA. […]

Another data set relates to subjects with knee OA. Particulars: cited from earlier work.
Data set [1] deals with T2, recombinant human integrin α1β1 (human, UniProt P56199 29-1141; P05556 21-728).
T2 construct: Bought from R&D Systems
In words: competition ELISA with biotinylated RGD-Knottin on coated integrin. For orientation: In an ELISA, binding on a coated surface is turned into a signal by an enzyme label.

Data set [2] addresses T3, recombinant human integrin α2β1 (human, UniProt P17301 30-1132; P05556 21-728).
T3 construct: Bought from R&D Systems
Described as above.

In data set [3] the target is T4, recombinant human integrin αvβ5 (human, UniProt P06756 31-992; P18084 24-719).
T4 construct: Bought from R&D Systems
The data set is described as above.

Data set [4] deals with T5, recombinant human integrin αvβ1 (human, UniProt P06756 31-992; P05556 21-728).
T5 construct: Bought from R&D Systems
Described as above.

For data set [5], the target named is T6, recombinant human integrin αvβ6 (human, UniProt P06756 31-992; P18564 22-707).
T6 construct: Bought from R&D Systems
Described as above.

In data set [6] the target is T7, recombinant human integrin αvβ8 (human, UniProt P06756 31-992; P26012 43-684).
T7 construct: Bought from R&D Systems
Described as above.

Data set [7] deals with T8, recombinant human integrin α3β1 (human, UniProt P26006 33-991; P05556 21-728).
T8 construct: Bought from R&D Systems; Named only for the initial screening
In words: initial integrin binding screen.

The target in data set [8] is T9, recombinant human integrin α4β1 (human, UniProt P13612 34-970; P05556 21-728, limits assumed).
T9 construct: Bought from R&D Systems; Named only for the initial screening
In words: initial integrin binding screen.

For data set [9], the target named is T10, recombinant human integrin α5β1 (human, UniProt P08648 42-995; P05556 21-728).
T10 construct: Bought from R&D Systems; Named only for the initial screening
In words: initial integrin binding screen.

The target in data set [10] is T11, recombinant human integrin α6β1 (human, UniProt P23229 24-1011; P05556 21-728, limits assumed).
T11 construct: Bought from R&D Systems; Named only for the initial screening
In words: initial integrin binding screen.

The target in data set [11] is T12, recombinant human integrin α9β1 (human, UniProt Q13797 30-981; P05556 21-728, limits assumed).
T12 construct: Bought from R&D Systems; Named only for the initial screening
Put plainly: initial integrin binding screen.

Data set [12] concerns the target T13, recombinant human integrin α10β1 (human, UniProt O75578 23-1122; P05556 21-728, limits assumed).
T13 construct: Bought from R&D Systems; Named only for the initial screening
Put plainly: initial integrin binding screen.

Data set [13] has as its target T8, recombinant human integrin α3β1. Put plainly: binding study with Knottin; reference integrin αvβ3.
Data set [14] deals with T9, recombinant human integrin α4β1. Described as above.
The target of data set [15] is T10, recombinant human integrin α5β1. The data set is described as above.
Data set [16] has as its target T11, recombinant human integrin α6β1. The description is as above.
Data set [17] has as its target T12, recombinant human integrin α9β1. The description is as above.
Data set [18] concerns the target T13, recombinant human integrin α10β1. The description is as above.
Data set [19] deals with T2, recombinant human integrin α1β1. In words: competition ELISA with Knottin; reference integrin αvβ3.
Data set [20] has as its target T3, recombinant human integrin α2β1. The description is as above.
For data set [21], the target named is T5, recombinant human integrin αvβ1. The data set is described as above.
Data set [22] has as its target T6, recombinant human integrin αvβ6. The description is as above.
For data set [23], the target named is T7, recombinant human integrin αvβ8. The description is as above.
In data set [24] the target is T2, recombinant human integrin α1β1. Put plainly: integrin binding screen / competition ELISA with RGD-Knottin.
Data set [25] concerns the target T3, recombinant human integrin α2β1. The description is as above.
The target in data set [26] is T5, recombinant human integrin αvβ1. The description is as above.
In data set [27] the target is T6, recombinant human integrin αvβ6. The description is as above.
Data set [28] has as its target T7, recombinant human integrin αvβ8. The description is as above.
The target of data set [29] is T14, recombinant human integrin αvβ3 (human, UniProt P06756 31-992; P05106 27-718).
T14 construct: Bought from R&D Systems
Put plainly: competition ELISA; coated integrin, biotinylated RGD-Knottin as competitor.

Data set [30] deals with T14, recombinant human integrin αvβ3. Put plainly: competition ELISA; coated integrin, biotinylated RGD-Knottin as competitor (FIG. 2).
Data set [31] has the same target. Put plainly: competition ELISA; coated integrin, biotinylated RGD-Knottin as competitor (FIG. 4).

Where no end group is shown, it is not given here.

For the molecule PDLLVRGDNDVPPFSGDGQHFMH [SEQ ID No: 14], in the data set with human and rat bone cells, the “biological activities in the bone cells of the other species” value is “interchangeably show biological activities in the bone cells of the other species”.
By IC50 is commonly meant the concentration that gives 50% inhibition. For “GFQDSLDSNRQDPGTDPEKGIDF-NH2 [SEQ ID No: 15]”, at integrin αvβ3 (peptide concentration giving 50% inhibition of biotinylated knottin binding, triplicate), the “binding affinity (IC50) of the peptide and integrin αvβ3” value is “no binding affinity within the limits of the binding assay”. The IC50 on integrin αvβ3 (read-out: binding affinity (IC50) of the peptide and integrin αvβ3) is over 3.94 mM.
Take `O=P(O)(O)C(O)(Cc1cccnc1)P(=O)(O)O` [risedronate]: in the data set with subjects with knee OA (n=2483, Bingham 2006), the effects on pain entry was “favoring placebo over active drug”.
In the case of `N#Cc1c(N(CC(=O)[O-])CC(=O)[O-])sc(C(=O)[O-])c1CC(=O)[O-].[Sr+2].[Sr+2]` [strontium ranelate], in the data set with subjects with knee OA (in vivo), the “risk of myocardial infarction” value is reported as “increase the risk of myocardial infarction”.

B1: scrambled peptide of SEQ ID No: 15 (peptide)
peptide: GFQDSLDSNRQDPGTDPEKGIDF-NH2
notes: Synthetic, made on a Rink-amide resin; also called scramble peptide
For B1, the binding result in data set [1], in [2], in data set [3], in data set [4], in data set [5] and in data set [6] was “no binding” throughout.
As for TDLQERGDNDISPFSGDGQPFKD-NH2 (also called human orthologue) [peptide of SEQ ID No: 10 (TPX-100)], the binding result in [7], in [8], in [9], in data set [10], in data set [11] and in data set [12] was “no binding” in each case. Moreover, the binding result in data set [24], in [25], in data set [26], in [27] and in data set [28] was “no binding” in each case. Besides, the “fold by which the binding affinity to αvβ3 is higher than to this integrin” value (shortened to “fold by which the binding affinity”) in data set [13], in [14], in [15], in [16], in data set [17] and in data set [18] was at least 300 times in each case. Moreover, the “fold by which the binding affinity” value in data set [19], in data set [20], in data set [21], in data set [22] and in data set [23] was at least 300 times throughout. For the same molecule, the IC50 in data set [29] was about 30 µg/mL; in data set [30], about 33 µg/mL.
Consider PDLQERGDNDISPFSGDGQPFKD-NH2 [peptide of SEQ ID No: 12 (canine orthologue of TPX-100)], for which the “fold by which the binding affinity” value in data set [13], in [14], in data set [15], in data set [16], in data set [17] and in [18] was at least 300 times in each case. Moreover, the “fold by which the binding affinity” value in data set [19], in data set [20], in [21], in data set [22] and in [23] was at least 300 times in each case. For the same molecule, the IC50 in [31] is about 23 µg/mL.
